Patent publication US6991794B1, “Progenitor cell preservation factors and methods for and products of their use” (ImClone Systems Incorporated, priority 1997, dated 2006)

How the values were obtained:
untransfected 3T3 cells = assay: untransfected parent 3T3 control cells (XTT); assay type: cell-based; conditions: Example 5 serum-free conditions
Procedure: Specifically, 3T3 cells cultured in tissue culture plates (Becton Dickinson Labware, Lincoln Park, N.J.) were removed from the plates by washing cells twice in Hank's buffered saline solution (HBSS; Gibco Laboratories, Grand Island, N.Y.). Non-enzymatic cell dissociation buffer (Gibco) was added for 15 minutes at room temperature. The resulting cells were washed in medium. FLT3 3T3 cells were cultured at a final concentration of 3,000 cells per well in a volume of 100 μL of serum-defined medium containing […] rhIL1-α, 10% AIMV (Gibco, Grand Island, N.Y.) and 90% Dulbecco's modification of Eagle's medium (DMEM; Gibco) in 96 well plates. […] Proliferation and cell survival was quantitated by addition of XTT (2, 3-bis[Methoxy-4-nitro-5sulfophenyl]-2H-tetrazolium-5 carboxanilide inner salt) (Diagnostic Chemicals Ltd, Charlottetown, Prince Edward Island, Canada), which is a […] cleaved by actively respiring cells (Roehm et al., J. Immunol. Methods 142: 257-265, 1991). Proliferation and cell survival was quantitated spectrophotometrically using a Vmax kinetic plate reader (Molecular Devices Corp., Mountain View, Calif.), and recorded as either relative activity (units/mL) or as specific activity (units/mg). One unit of biological activity was defined as the reciprocal dilution at which half-maximal stimulation of cells is detected. […]

[1] = tested on: Flt3-expressing 3T3 cells; assay: Flt3 3T3 assay during purification of Pv-FRIL; assay type: cell-based; conditions: 80,000-fold purification; IL1-α or PHA-LCM as co-factor
Procedure: To create factor-dependence for receptor-transfected 3T3 cells, growth conditions were compromised to permit only ligands to rescue cells from death. To do this, 3T3 cell lines were assayed in 96 well plates (Becton Dickinson Labware, Lincoln Park, N.J.) containing 3,000 cells in 100 μL of serum-free medium consisting of 10% AIMV (Life Technologies) and 90% DMEM. In each experiment, samples were serially diluted two-fold across rows starting at a 1:10 dilution. Viable cells were quantitated after 3-5 days by XTT (2,3-bis[Methoxy-4-nitro-5sulfophenyl]-2H-tetrazolium-5 carboxanilide inner salt) (Sigma, St. Louis, Mo.) (Roehm et al., supra). Relative activity (units/ml) and specific activity (units/mg) are defined as the reciprocal dilution at which half-maximal stimulation of cells was detected.
Each batch of PHA-LCM was generated in serum-free medium with cells from individual normal donors. To start purification, the PHA-LCM with Flt3 3T3 activity was pooled in 30 liter lots with approximately 10^7 Flt3 3T3 units. Twenty-five liters of PHA-LCM was diafiltered into 50 mM Tris-HCl, pH 7.6, 50 mM NaCl and then concentrated to 2-2.5 liters by tangential flow ultrafiltration on a 10 kDa molecular weight cutoff membrane (Pellicon, Millipore, Bedford, Mass.). A Blue-sepharose FF (Pharmacia Biotech) column (10 cm×15 cm) was equilibrated with 50 mM Tris-HCl, pH 7.4,50 mM NaCl. […]

B1: Pv-FRIL: FRIL family mannose-binding lectin from Phaseolus vulgaris (red kidney bean), SEQ ID NO: 6 (protein)
chain: AQSLSFNFTKFDLDQKDLIFQGDATSTNNVLQLTKLDSGGNPVGASVGRVLFSAPFHLWENSMAVSSFETNLTIQISTPHPYYAADGFAFFLAPHDTVIPPNSWGKFLGLYSNVFRNSPTSENQSFGDVNTDSRVVAVEFDTFPNANIDPNYRHIGIDVNSIKSKETARWEWQNGKTATARISYNSASKKSTVTTFYPGMEVVALSHDVDLHAELPEWVRVGLSASTGEEKQKNTIISWSFTSSLKNNEVKEPKEDMYIANVVRSYTWINDVLSYISNKMYDALNNNHKYVRCSTCMLFMKKK
- response of parent untransfected 3T3 cells (untransfected 3T3 cells): did not
- specific activity of purified fraction [1]: 244,500 units/mg
